Experimental findings from paper PMC11897886 (Nucleic Acids Research, 2024) are described below.

Test in all cases: pull-down
One data set concerns the target T1, Upf1-FL;Nmd4;Dcp2-UBM (Saccharomyces cerevisiae;Saccharomyces …, UniProt P30771;Q12129;P53550 1-971;1-218;434-720, ||).
T1 sequence 1: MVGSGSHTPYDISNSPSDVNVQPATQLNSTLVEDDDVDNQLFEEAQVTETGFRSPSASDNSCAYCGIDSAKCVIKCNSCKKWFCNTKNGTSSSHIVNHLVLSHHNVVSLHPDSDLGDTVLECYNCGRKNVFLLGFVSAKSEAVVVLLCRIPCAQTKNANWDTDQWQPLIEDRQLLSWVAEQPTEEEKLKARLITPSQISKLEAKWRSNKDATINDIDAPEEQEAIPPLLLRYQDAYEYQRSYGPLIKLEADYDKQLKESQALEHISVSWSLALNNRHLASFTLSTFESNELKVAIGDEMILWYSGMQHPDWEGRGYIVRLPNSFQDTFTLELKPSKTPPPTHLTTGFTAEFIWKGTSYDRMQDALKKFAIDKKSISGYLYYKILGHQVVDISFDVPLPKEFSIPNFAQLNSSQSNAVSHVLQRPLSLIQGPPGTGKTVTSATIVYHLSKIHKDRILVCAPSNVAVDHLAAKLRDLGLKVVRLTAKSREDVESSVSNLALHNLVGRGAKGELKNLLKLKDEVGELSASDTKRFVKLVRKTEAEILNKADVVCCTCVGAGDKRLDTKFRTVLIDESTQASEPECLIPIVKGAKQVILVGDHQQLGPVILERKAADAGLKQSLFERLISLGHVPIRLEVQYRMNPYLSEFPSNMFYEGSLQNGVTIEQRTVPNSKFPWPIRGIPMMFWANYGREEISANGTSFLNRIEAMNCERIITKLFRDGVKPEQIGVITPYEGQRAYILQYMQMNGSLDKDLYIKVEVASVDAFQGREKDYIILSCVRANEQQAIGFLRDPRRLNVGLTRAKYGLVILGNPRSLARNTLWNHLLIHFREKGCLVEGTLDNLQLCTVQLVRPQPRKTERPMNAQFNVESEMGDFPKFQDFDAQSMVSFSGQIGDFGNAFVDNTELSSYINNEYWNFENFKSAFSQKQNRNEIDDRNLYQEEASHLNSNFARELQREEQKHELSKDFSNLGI
T1 sequence 2: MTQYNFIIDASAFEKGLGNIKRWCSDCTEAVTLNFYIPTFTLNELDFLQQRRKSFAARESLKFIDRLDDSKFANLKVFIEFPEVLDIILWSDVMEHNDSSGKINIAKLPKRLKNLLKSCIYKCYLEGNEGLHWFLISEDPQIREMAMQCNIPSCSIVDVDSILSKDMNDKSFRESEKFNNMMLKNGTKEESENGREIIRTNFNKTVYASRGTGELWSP
T1 sequence 3: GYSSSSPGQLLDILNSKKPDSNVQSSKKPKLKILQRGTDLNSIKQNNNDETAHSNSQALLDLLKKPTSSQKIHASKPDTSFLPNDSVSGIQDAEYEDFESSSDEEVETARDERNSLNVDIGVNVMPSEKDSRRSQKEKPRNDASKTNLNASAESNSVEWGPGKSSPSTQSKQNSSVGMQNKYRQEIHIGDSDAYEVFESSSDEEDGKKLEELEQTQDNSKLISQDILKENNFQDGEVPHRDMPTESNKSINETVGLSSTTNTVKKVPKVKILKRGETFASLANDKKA

Another data set deals with T2, Upf1-FL;Dcp2-UBM (Saccharomyces cerevisiae;Saccharomyces …, UniProt P30771;P53550 1-971;434-720, |).
T2 sequence 1: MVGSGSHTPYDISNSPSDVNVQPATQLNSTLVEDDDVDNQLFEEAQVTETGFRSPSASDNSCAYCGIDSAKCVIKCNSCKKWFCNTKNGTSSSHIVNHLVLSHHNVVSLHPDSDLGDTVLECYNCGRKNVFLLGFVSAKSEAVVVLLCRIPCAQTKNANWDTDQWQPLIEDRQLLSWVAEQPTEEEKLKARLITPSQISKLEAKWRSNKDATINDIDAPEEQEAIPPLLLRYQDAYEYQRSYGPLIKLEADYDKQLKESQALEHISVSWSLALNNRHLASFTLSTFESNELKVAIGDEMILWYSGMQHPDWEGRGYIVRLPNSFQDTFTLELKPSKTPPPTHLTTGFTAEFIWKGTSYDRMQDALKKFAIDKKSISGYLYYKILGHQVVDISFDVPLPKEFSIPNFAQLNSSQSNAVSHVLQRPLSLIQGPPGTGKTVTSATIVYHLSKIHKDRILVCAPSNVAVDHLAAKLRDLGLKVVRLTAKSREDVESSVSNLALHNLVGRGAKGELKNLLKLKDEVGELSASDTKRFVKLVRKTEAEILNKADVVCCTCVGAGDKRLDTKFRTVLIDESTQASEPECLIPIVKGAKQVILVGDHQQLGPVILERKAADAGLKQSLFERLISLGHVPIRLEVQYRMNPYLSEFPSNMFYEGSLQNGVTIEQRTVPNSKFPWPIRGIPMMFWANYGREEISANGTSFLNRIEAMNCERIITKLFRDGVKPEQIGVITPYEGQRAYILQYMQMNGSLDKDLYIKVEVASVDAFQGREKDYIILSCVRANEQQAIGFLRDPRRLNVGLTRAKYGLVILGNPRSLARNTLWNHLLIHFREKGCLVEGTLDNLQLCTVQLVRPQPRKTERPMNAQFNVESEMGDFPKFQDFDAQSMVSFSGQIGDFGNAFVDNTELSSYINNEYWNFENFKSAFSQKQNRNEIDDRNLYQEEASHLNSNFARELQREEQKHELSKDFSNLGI
T2 sequence 2: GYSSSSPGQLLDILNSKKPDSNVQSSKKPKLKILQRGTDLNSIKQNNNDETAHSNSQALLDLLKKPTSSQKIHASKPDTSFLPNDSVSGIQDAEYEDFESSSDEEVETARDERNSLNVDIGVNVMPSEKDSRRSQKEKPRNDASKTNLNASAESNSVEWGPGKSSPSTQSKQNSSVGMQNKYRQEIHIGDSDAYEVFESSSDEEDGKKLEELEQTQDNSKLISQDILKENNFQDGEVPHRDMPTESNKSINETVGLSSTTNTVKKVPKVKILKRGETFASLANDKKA

The next data set deals with T3, Upf1-FL (Saccharomyces cerevisiae, UniProt P30771 1-971).
T3 sequence: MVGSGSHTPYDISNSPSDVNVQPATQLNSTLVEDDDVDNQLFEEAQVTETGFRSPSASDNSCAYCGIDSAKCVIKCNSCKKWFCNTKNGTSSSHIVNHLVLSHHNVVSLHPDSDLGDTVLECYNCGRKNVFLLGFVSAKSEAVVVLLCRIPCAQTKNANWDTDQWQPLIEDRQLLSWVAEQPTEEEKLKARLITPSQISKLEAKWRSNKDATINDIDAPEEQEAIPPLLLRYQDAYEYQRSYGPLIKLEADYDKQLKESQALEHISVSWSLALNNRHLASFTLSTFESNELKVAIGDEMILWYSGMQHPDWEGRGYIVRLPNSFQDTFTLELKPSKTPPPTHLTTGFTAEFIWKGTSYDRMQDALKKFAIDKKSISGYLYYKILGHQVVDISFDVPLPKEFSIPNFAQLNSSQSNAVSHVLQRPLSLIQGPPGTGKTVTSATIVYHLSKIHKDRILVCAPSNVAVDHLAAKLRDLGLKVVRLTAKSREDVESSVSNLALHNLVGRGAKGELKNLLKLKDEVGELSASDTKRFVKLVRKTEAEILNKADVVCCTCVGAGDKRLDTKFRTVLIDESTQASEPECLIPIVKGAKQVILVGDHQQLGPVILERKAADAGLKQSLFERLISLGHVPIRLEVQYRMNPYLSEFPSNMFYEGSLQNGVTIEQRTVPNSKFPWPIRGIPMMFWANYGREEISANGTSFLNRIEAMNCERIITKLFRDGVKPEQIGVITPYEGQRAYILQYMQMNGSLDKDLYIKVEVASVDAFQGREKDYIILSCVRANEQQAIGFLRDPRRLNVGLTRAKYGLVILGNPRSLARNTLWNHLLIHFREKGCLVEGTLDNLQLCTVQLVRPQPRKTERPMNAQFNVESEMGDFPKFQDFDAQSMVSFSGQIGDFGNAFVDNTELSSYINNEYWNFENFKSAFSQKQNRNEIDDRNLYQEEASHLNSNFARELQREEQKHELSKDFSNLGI

A further data set addresses T4, Upf2-Ct (Saccharomyces cerevisiae, UniProt P38798 933-1089).
T4 sequence: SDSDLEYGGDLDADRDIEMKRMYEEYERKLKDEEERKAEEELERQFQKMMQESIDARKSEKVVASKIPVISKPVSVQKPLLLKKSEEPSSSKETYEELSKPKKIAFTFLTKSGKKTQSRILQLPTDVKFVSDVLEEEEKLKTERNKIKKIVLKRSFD

The next data set concerns the target T5, Dcp2-UBM (Saccharomyces cerevisiae, UniProt P53550 434-720).
T5 sequence: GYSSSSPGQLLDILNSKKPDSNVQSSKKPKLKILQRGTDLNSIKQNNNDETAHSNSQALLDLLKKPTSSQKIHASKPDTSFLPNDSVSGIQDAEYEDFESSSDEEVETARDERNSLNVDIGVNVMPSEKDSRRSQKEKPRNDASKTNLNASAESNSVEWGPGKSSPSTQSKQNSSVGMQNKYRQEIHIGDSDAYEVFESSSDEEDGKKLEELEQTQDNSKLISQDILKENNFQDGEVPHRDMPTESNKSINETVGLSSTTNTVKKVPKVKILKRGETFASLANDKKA

The target in a further data set is T6, Upf1-FL;Nmd4 (Saccharomyces cerevisiae;Saccharomyces …, UniProt P30771;Q12129 1-971;1-218, |).
T6 sequence 1: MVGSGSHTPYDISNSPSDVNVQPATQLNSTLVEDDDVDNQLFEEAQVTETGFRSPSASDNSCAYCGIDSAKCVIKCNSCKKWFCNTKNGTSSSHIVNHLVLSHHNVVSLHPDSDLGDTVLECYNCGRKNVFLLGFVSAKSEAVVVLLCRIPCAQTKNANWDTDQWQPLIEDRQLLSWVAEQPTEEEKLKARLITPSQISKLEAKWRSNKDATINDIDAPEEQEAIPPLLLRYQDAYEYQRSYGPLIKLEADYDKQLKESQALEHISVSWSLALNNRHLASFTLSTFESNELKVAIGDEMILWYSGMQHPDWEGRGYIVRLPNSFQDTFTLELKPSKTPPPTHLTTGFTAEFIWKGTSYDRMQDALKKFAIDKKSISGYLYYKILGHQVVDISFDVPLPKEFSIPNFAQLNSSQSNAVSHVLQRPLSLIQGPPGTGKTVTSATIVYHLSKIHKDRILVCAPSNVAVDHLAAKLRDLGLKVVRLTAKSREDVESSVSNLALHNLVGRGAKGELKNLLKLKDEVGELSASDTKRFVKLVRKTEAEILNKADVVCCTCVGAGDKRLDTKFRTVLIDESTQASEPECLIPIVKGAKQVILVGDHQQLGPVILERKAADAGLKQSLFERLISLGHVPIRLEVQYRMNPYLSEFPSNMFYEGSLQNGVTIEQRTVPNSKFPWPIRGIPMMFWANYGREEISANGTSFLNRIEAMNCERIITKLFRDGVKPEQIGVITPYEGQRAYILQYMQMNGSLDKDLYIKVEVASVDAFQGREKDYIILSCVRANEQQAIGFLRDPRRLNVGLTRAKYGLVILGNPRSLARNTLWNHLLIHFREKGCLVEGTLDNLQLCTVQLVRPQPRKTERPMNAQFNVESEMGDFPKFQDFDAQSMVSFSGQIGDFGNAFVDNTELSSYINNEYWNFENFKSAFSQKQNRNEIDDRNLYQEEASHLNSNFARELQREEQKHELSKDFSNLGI
T6 sequence 2: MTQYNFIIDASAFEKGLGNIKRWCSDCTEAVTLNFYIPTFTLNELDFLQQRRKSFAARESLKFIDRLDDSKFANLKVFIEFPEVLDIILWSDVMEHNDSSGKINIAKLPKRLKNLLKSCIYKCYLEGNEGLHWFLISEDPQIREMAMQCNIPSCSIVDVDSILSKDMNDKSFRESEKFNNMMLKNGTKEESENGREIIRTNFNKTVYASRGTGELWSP

For the molecule CGUCCAUCUGGUCAUCUAGUGAUAUCAUCG (ssRNA) [3'-biotinylated RNA (30-mer in Methods, called 33-mer in Results)], the binding result with Upf1-FL;Nmd4;Dcp2-UBM was “binds”; with Upf1-FL;Dcp2-UBM, “binds”; with Upf1-FL, “binds”; in the data set with Upf2-Ct, “no binding”; with Dcp2-UBM, “no binding”; with Upf1-FL;Nmd4, “binds”.
